# Laboratory results published in patent US20040110688A1 (SAINT LOUIS UNIVERSITY, published 2004).
# T1: factor VIIIa (human, UniProt P00451 20-2351)
# T1 sequence (looked up): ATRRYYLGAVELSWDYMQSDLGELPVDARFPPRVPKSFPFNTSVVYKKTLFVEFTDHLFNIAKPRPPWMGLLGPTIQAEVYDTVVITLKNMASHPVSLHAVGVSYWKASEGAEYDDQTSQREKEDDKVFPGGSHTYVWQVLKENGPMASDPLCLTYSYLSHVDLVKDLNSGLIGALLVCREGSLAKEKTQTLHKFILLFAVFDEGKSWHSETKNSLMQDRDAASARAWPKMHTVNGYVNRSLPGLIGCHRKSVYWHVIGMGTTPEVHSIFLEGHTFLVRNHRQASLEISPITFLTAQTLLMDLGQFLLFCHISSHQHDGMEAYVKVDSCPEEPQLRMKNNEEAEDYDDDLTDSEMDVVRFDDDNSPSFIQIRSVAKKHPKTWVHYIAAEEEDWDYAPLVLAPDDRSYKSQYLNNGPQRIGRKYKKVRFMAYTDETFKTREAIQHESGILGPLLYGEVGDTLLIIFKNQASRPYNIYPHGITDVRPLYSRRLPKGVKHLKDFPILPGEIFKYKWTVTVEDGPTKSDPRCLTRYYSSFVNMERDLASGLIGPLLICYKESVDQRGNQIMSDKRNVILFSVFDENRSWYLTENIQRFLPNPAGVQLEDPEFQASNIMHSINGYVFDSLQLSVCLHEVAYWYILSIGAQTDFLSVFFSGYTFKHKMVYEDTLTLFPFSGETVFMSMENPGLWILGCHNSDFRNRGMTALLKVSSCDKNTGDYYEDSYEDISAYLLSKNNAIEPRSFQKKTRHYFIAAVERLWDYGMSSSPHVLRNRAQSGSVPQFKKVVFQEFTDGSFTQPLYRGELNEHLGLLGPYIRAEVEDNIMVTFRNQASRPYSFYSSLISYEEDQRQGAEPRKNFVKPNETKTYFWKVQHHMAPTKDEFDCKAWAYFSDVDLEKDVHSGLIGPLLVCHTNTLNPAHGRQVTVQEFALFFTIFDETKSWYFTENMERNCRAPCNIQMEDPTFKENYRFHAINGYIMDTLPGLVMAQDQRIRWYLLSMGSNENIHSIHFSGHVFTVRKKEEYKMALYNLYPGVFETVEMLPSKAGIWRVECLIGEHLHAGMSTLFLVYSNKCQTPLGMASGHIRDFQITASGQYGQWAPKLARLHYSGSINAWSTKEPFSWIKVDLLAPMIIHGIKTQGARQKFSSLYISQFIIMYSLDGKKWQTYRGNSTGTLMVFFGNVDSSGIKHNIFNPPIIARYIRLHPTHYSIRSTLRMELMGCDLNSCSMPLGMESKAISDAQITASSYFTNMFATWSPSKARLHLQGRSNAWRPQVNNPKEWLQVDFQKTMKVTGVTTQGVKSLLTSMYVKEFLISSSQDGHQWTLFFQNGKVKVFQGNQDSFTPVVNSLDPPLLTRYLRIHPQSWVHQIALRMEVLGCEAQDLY
# B1: EGF1 Domain (other, UniProt P00740 93-131, looked up)
# chain: DGDQCESNPCLNGGSCKDDINSYECWCPFGFEGKNCELD
# notes: domain: EGF1 Domain
# B2: P-4351 SEQ ID NO: 6 (LVDRAT) (peptide)
# peptide: LVDRAT
# B3: P-4353 SEQ ID NO: 8 (LVDQAT) (peptide)
# peptide: LVDQAT
# B4: P-4352 SEQ ID NO: 7 (LVYRAT) (peptide)
# peptide: LVYRAT
# B5: P-4488 SEQ ID NO: 2 (DRAT) (peptide)
# peptide: DRAT
# B6: P-4354 (TKVSRYVN) (peptide)
# peptide: TKVSRYVN
# Target: T1, factor VIIIa
# Assay: Kd from the peptide competition assay (factor X activation by IXa with VIIIa and phospholipid)
row,Binder,Kd [µM]
1,B1,6
2,B2,0.35
3,B3,4.7
4,B4,6.6
5,B5,44.9
6,B6,1

# Target: T1, factor VIIIa
# Assay: peptide competition assay: inhibition of factor X activation by IXa with VIIIa and phospholipid
# Protocol: Each reaction was incubated for either 30, 60, 90, or 120 seconds and the reaction was stopped by adding 1.5 μL of 0.5 M EDTA and placed on ice. Forty μL of each reaction was added to 100 μL of TBS/BSA in a 96 well microtiter plate and S-2222 (Bz-Ile-Glu(γ-OR)-Gly-Arg-p-nitroanilide) was added to a final concentration of 100 μM.
row,Binder,IC50 [µM]
1,B1,12
2,B2,0.7
3,B3,9.3
4,B4,13.2
5,B5,89.8
